Results reported in patent publication US7868228.

B1: Shewanella oneidensis MR-1 phosphopantetheinyl transferase (So-ppt) (protein)
chain: MKIELFFIPLAEMDAEMVSRCMALLSEDERAKVARYLAPKAQMNGLLVRAALRCVLSQGLQSPNESSLNAFSSNTGSLPIAPQDWCFEYGAKGKPSLCHEQFLKTGIEFNLSHSGDWLLIALAQGRAHTKFIDQSAKTRLGLGVDIERARASTNIYPILNHYFSARETEALLALPGETAHRQRFFDLWALKESYIKATGLGLAQSLKSFAFELMPDALVEVHPNQVALRHEWVELKRREPFALPSQLKLYCEIKPTAAFLPDSAHPPPENLHVQSYFGRLDEEYRFGLSLIHPNALSNVQISMTLASIKSLLAASLAD
B2: Moritella marina phosphopantetheinyl transferase, long form (Mm-ppt long) (protein)
chain: LVQLKTYDETRLRSDGVNYLGGNLSYYQACNGKRIILVSILIMYSGVKDKLTLTTNEIHLWSVTPQTIQQPELLQAYSQLLSPAETIKQQRFRFEKDRHNALITRAFVRDLLSHYADVLPADWQFVKGEKDKPEIANPPLPLRFNISHTDNLIICAVMLNDDIGCDVENTLRSSNVLSIAKHSFSDSEFNDLLTQPTAQQTSRFFDYWTLKESYIKAWGLGLSIPLKDFSFTLPEGFQQQYQQEDQQENQHCIDTIKLSFAPHRIDNPNIWRHWLFYPNNTHRVALAVRARSNNQQTEYKMRFFNSTPLINITETLIFKPETNFKPDAK
B3: Colwellia psychrerythraea phosphopantetheinyl transferase (Cp-ppt) (protein)
chain: MTSFSQSELSTRTKEKLDLAANEIHIWVTKPEELLGNDELLATYSTLLTSTETAKQQRYKFAKDRHDALITRAFIRDLLSYYADVAPQDWQFEKGNKDKPEVINCPLPLRFNISHTKNLIICAVTLEDDIGCDVENTGRNNNVLAIAERYFSSKEIDELFALPEAQQRNRFFDYWTLKESYIKAWGLGLAIPLADFSFKINDTEHNHNGLFTIKQDINLSFAEHRVDEPQIWRSWLVYPTAAIDEKQEHRIAVSLRATSDNQKTDYQLRFFNTLPLLGYQEI
B4: Moritella marina phosphopantetheinyl transferase, short form (Mm-ppt short) (protein)
chain: MYSGVKDKLTLTTNEIHLWSVTPQTIQQPELLQAYSQLLSPAETIKQQRFRFEKDRHNALITRAFVRDLLSHYADVLPADWQFVKGEKDKPEIANPPLPLRFNISHTDNLIICAVMLNDDIGCDVENTLRSSNVLSIAKHSFSDSEFNDLLTQPTAQQTSRFFDYWTLKESYIKAWGLGLSIPLKDFSFTLPEGFQQQYQQEDQQENQHCIDTIKLSFAPHRIDNPNIWRHWLFYPNNTHRVALAVRARSNNQQTEYKMRFFNSTPLINITETLIFKPETNFKPDAK

molecular target: Moritella marina polyketide synthase (PKS), four polypeptides Orf5, Orf6, Orf7 and Orf8

DHA Produced (gas chromatography of fatty acid methyl esters from E. coli co-expressing the Ppt and the PKS), Yes:
B1
B2
B3
B4
